Laboratory results taken from PMC3525766 (Journal of structural biology, 2012).

Biological target: the molecule itself
Test: cross-linking

B1: coiled-coil domain of human LRRFIP1 (LRRFIP1-CC) (domain or fragment)
chain: MDSLAEVEEKYKKAMVSNAQLDNEKTNFMYQVDTLKDMLLELEEQLAESRRQYEEKNKEFEREKHAHSILQFQFAEVKEALKQREEMLEK
**Q.** How did the “stoichiometry N” value turn out when B1 was run?
**A.** The value was 2.
